Among the data in PMC5766548 are stoichiometry N values, retold here.

One assay has as its target enhanced GFP (EGFP). The assay can be described thus: AUC; sedimentation velocity; 0.33, 0.65 and 1.3 mg mL^-1; 20 mM Tris pH 7.5, 150 mM NaCl; 50,000 rpm, 20 °C; absorbance at 280 nm; c(s) distributions and weight average sedimentation coefficients against concentration.
Assay [1] deals with ultra-stable GFP (usGFP) [GFP: P42212]. The assay is described as follows: SEC-SAXS; in-line Superdex 75 10/300 GL; 50 µL loaded at approximately 50 mg mL^-1 (> approximately 10 mg mL^-1 after dilution on the column); 25 mM Tris pH 7.5, 150 mM NaCl; profiles compared with CRYSOL curves of monomer and dimer of the usGFP crystal structure. (In general: In gel filtration, larger molecules generally elute earlier.)

The target of assay [2] is superfolder GFP (sfGFP) [GFP: P42212]. Described as above.

Regarding enhanced GFP (EGFP), the stoichiometry N (in general, the number of molecules, sites or subunits per partner or assembly) in the assay with enhanced GFP (EGFP) stood at 2. Turning to “ultra-stable GFP (usGFP) (from UniProt P42212 1-238)”, the stoichiometry N in assay [1] was 2. As to “superfolder GFP (sfGFP) (from UniProt P42212 1-238)”, the stoichiometry N in assay [2] amounted to 2.
